The results in this text go back to US20250034594A1, “RNA-GUIDED GENOME RECOMBINEERING AT KILOBASE SCALE” (THE BOARD OF TRUSTEES OF THE LELAND STANFORD JUNIOR …, priority 2021, published 2025).

Common to all, as to type: cell-based
The subject of one test is gene editing with Cas9. Nature of the test: Screen of 322 new SSAP proteins, gene editing activity with Cas9 (Table 5). Details: Cas9 with SSAP activity: scale not given here. The method, boiled down:
(§1)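 The 322 SSAP proteins were found in sequence data and then synthesized. Each was screened for gene editing activity when paired with Cas9 and with dCas9.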

Test [1] relates to gene editing with Cas9 and dCas9. Nature of the test: Screen of 322 new SSAP proteins, activity across all experiments (Cas9 and dCas9, Table 5). Details: scale not given here. In short, it runs like this:
as §1

Another test relates to gene editing with dCas9. Nature of the test: Screen of 322 new SSAP proteins, gene editing activity with dCas9 (Table 5). Also noted: dCas9 with SSAP activity: scale not given here. In short, it runs like this:
as §1

B1: SSAP_174: SEQ ID NO: 343; Hespellia stercorisuis (protein, listed as Hespellia stercorisuis)
chain: ADIKEELAKKVAEGTEDKKKLTKSMSIADLIKAMEPEIKKALPEVITPERFTRMALSALNTTPKLKECTQTSFLTALMNAAQLGLEPNTPLGQAYLIPYKNKGNLECQFQIGYKGLIDLSYRNRQMQIIQAQAVYENDEFEYELGLNPVLVHRPALQNRGAVKLFYGIFKLTNGGFGFEVMSKADMDAYAKEYSKAFDSSFSPWKSNYIGMAKKTVIKQAIKYAPLKTDFRKALSTDETIKTEFCEDMSEVQCKDIWDTEYKERSA
B1: in the test on gene editing with Cas9, the “Cas9 with SSAP activity” value is −3.891 and the “Cas9 with SSAP activity (normalized)” value was −0.617. In test [1], the “Activity across all experiments” value is −4.727. For the same molecule, in the test with gene editing with dCas9, the “dCas9 with SSAP activity” value is −5.563 and the “dCas9 with SSAP activity (normalized)” value is −1.144.

B2: SSAP_217: SEQ ID NO: 386; Streptomyces noursei (protein, listed as Streptomyces noursei)
chain: TSPIRAAVARRAGDPAALISQYTADFAAVLPSHIKPATFVRLAQGILRRDEKLAQAAANDPGQFMSVLLDAARLGLEPGTEAYYLVPFKGRVQGIVGWQGEIELMYRAGAISSVIVETVREDDVFVWTPGLVDRETPPRWEGPMSYPFHEVEWAGDRGPLRLVYAYAVMKGGATSKVVVLNAQDIERAKKTSQGADSPSSPWRQHEAAMWSKTAVHRLAKYVPTSAEYITAQVRAVRQADALSAPPVEEVVDVELVGDGQEQEARR
As for B2, in the test on gene editing with Cas9, the “Cas9 with SSAP activity” value was −1.938 and the “Cas9 with SSAP activity (normalized)” value is −1.023. For the same molecule, the “Activity across all experiments” value in test [1] is listed as −3.758. Besides, in the test on gene editing with dCas9, the “dCas9 with SSAP activity” value is recorded as −5.577 and the “dCas9 with SSAP activity (normalized)” value is reported as −0.839.

B3: SSAP_99: SEQ ID NO: 268; Pseudomonas stutzeri (protein, listed as Pseudomonas stutzeri)
chain: STENVAPFSQKDMQQATGQQVKPRSPADSLAAMLASPKMKAQFAAALPKHMTAERMARIVTTEIRKTPALVKCDQHSFLGSVIQCAQLGLEPGNSLGHAYLLPYGNQVQLIIGYRGMIDLARRSGQIVSLSARTVREHDEFDYQLGLHEDLTHKPFEGEHAGEITHVYAVARLQGGGVQFEVMSKAQVEAVRAQSKAGKSGPWVSHWEEMAKKTVIRRLFKYLPVSVEIQRAVTLDEAAEAGLPQGNEYVFDGDFEVVNDASGAQQ
On to B3, for which, in the test with gene editing with Cas9, the “Cas9 with SSAP activity” value is −3.807 and the “Cas9 with SSAP activity (normalized)” value is recorded as −0.873. Moreover, the “Activity across all experiments” value in test [1] was −4.570. Besides, in the test with gene editing with dCas9, the “dCas9 with SSAP activity” value is −5.333 and the “dCas9 with SSAP activity (normalized)” value is reported as −0.891.

B4: SSAP_182: SEQ ID NO: 351; Lacrimispora sphenoides (protein)
chain: ADVKQELEKRAAGSGGQSVKLTKNMTIVDMVKALEPEIKRALPCILTPERFSRMALSAINNTPKLGECTPMSFIAALMNAAQLGLEPNTPLGQAYLIPYKNKGVLECQFQLGYRGLIDLAYRNERMQSIEAQVVYDNDEFSYELGLHPSLIHRPTFDEPGEIQAFYAIFRLDNGGFRFEVMSKNYVDSLCHALFKSIYFRFQSLEK
modifications: Lacrimispora sphenoides
Regarding B4, in the test with gene editing with Cas9, the “Cas9 with SSAP activity” value is listed as −1.549 and the “Cas9 with SSAP activity (normalized)” value is reported as −1.689. Besides, the “Activity across all experiments” value in test [1] is −3.606. Also, in the test with gene editing with dCas9, the “dCas9 with SSAP activity” value is given as −5.663 and the “dCas9 with SSAP activity (normalized)” value is on record as −0.742.

B5: SSAP_89: SEQ ID NO: 258; Pantoea brenneri (protein, listed as Pantoea brenneri)
chain: SNQPPIASADLQKTQQSKQVANKTPEQTLVGFMNQPAMKSQLAAALPRHMTADRMIRIVTTEIRKTPQLAQCDQSSFIGAVVQCSQLGLEPGSALGHAYLLPFGNGRSKSGQSNVQLIIGYRGMIDLARRSGQIVSLSARVVRADDEFSFEYGLDENLVHRPGENEDAPITHVYAVARLKDGGTQFEVMTVKQVEKVKAQSKASSNGPWVTHWEEMAKKTVIRRLFKYLPVSIEMQKAVVLDEKAESDVDQDNASVLSAEYSVLESGDEATN
For the molecule B5, in the test on gene editing with Cas9, the “Cas9 with SSAP activity” value stood at 0.562 and the “Cas9 with SSAP activity (normalized)” value came to 0.533. In test [1], the “Activity across all experiments” value is listed as 0.393. For the same molecule, in the test with gene editing with dCas9, the “dCas9 with SSAP activity” value is listed as 0.225 and the “dCas9 with SSAP activity (normalized)” value is recorded as 0.240.

B6: SSAP_24: SEQ ID NO: 193 (protein)
chain: TNNQIVEAKGDFLTNPQLLNSGIIRKYLDPQGKASDEELAYFIAQAKAQNLNPFTKEIYFIKYGTQPAQIVTAKSAFEKKADSHPQFDGKEAGVIYLMDGEIKYSKGAFIPKGAEILGGWAKVYRKDRTYPTETEVSFEEYDNSKIRARVKELTQQGKDVTYPVMNSYGKPIGENNWDTMPCVMIRKVALVSAYREAFPAELGASYEADEIQLDNTPKDVTPQESREDVVARKMAEIEQFNKEQEANHADPEPTQNEDPIQGELLDGELEY
Regarding B6, in the test on gene editing with Cas9, the “Cas9 with SSAP activity” value is on record as −3.642 and the “Cas9 with SSAP activity (normalized)” value is −0.681. Also, the “Activity across all experiments” value in test [1] is listed as −4.480. Moreover, in the test on gene editing with dCas9, the “dCas9 with SSAP activity” value was −5.319 and the “dCas9 with SSAP activity (normalized)” value is −0.711.

B7: SSAP_189: SEQ ID NO: 358; Asaia sp. W19 (protein, listed as Asaia sp.)
chain: SNALATPTEKLRTQITSMTGEFRNALPSHIKPEKFQRVVMTVVQQNQGLMNADRKSLLASCLKCAADGLIPDGREAALVMFGQQVQYMPMLAGIQKRIRNSGEIASIQAHVIYENDHFIWHQGIDASIEHRPLFPGDRGKAIGAYAVAKFKDGSDPQFEVMDVAAIEKVRAVSRAGKSGPWVQWWDEMARKTVFRRLSKWLPMDTEAEDLMRRDDENDAQDVAAPTIRVEAEAPSKLDALEHDDDGVVLEETRELEGSAA
As for B7, in the test with gene editing with Cas9, the “Cas9 with SSAP activity” value was −0.440 and the “Cas9 with SSAP activity (normalized)” value is on record as −2.025. Also, in test [1], the “Activity across all experiments” value was −3.046. In the test with gene editing with dCas9, the “dCas9 with SSAP activity” value is −5.652 and the “dCas9 with SSAP activity (normalized)” value was −0.952.

B8: SSAP_128: SEQ ID NO: 297; Viridibacillus sp. FSL H8-0123 (protein, listed as Viridibacillus sp.)
chain: ATNNALKEQMKQAPSKEVKPEQSLNTLLKRMGPEIQRALPKHMDADRIARIALTAVRNTPKLLDCDQMSFVAALMQSAQLGVEPNTGLGQAYLIPYGKQVQFQLGYKGLIDLAVRSGQYKAIYAHEVYEDDEFSFAYGLHKDLVHVPAPNPTGEPIGYYAVYHLQNGGYDFVYWTRERIDQHAHKFSMAVQKGWTSPWKTNFDAMAKKTVLKEVLKYAPKSIEMQKVVDADETVKTDVSDDMSNVIDVTDYTVMDQEQETIQEPTK
B8: in the test on gene editing with Cas9, the “Cas9 with SSAP activity” value is recorded as 0.839 and the “Cas9 with SSAP activity (normalized)” value was determined as 0.272. The “Activity across all experiments” value in test [1] is recorded as −2.230. Moreover, in the test with gene editing with dCas9, the “dCas9 with SSAP activity” value is on record as −5.299 and the “dCas9 with SSAP activity (normalized)” value is on record as −0.965.

B9: SSAP_115: SEQ ID NO: 284; Lacrimispora amygdalina (protein, listed as Lacrimispora amygdalina)
chain: AVDVKNELERKASGQNSQVKLTKSMTIADMVKALEPEIKRALPAVLTPERFTRMALSAINNTPELAGCTPMSFIAAMMNAAQLGLEPNTPLGQAYLIPYKNKGVLECQFQIGYKGMIDLAYRTGQIQVIQGQAVREFDYFEYQYGLDPKLVHRPGEEERGEITFIYGLFRLSNGGYGFEVSNKADMDAFAAKYSKSFGSKYSPWTENYEDMAKKTVIKRALKYAPVSVDFQKAMSMDETIKTEISVDMSEIRNECPEISENGEAA
In the case of B9, in the test with gene editing with Cas9, the “Cas9 with SSAP activity” value is −4.259 and the “Cas9 with SSAP activity (normalized)” value is recorded as −0.733. For the same molecule, the “Activity across all experiments” value in test [1] is −4.992. In addition, in the test with gene editing with dCas9, the “dCas9 with SSAP activity” value is reported as −5.725 and the “dCas9 with SSAP activity (normalized)” value was −1.307.

B10: SSAP_60: SEQ ID NO: 229 (protein)
chain: ASKNEAIEVSPAEIASVKEKPASIVKAEKAKKEPCALVKYEDAEGREVVLTREDIINTISSNPRITDKEIKLFIELARAQKLNPFTREIFITKYGDYPATFIVGKDVFTKRAQSNPLFKGMQAGIIVQRGNAVDQREGSATFGDEMLIGGWCKVYVQGYDVPIYDSVSFNEYAARKTDGTLNAMWASKPATMIRKVAIVHALREAFPSDFQGLYDQSEMGLSGQGGE
With B10, in the test on gene editing with Cas9, the “Cas9 with SSAP activity” value was 0.757 and the “Cas9 with SSAP activity (normalized)” value worked out at 0.560. The “Activity across all experiments” value in test [1] came to 0.534. In the test on gene editing with dCas9, the “dCas9 with SSAP activity” value is on record as 0.311 and the “dCas9 with SSAP activity (normalized)” value worked out at 0.109.

B11: SSAP_13: SEQ ID NO: 182 (protein)
chain: ANELGIFSVDNLNMTTIKQYLDGGGKASDAELVLLINLCKQNNMNPFMKEVYFIKYGNQPAQIVVSRDFYRKRAFQNPNFVGIEVGVIVLNKDGVLEHNEGTFKTHEQELVGAWARVHLKNTEIPVYVAVSYDEYVQMKDGHPNKMWTNKPCTMLGKVAESQALRMAFPAEFSGTYGEEEFPEPEKEPREVNGVKEPDRAQIESFDKEDYAAKKIEELKEKAQPQKEVVEETGEVIDEEPLEGF
As to B11, in the test on gene editing with Cas9, the “Cas9 with SSAP activity” value was −0.463 and the “Cas9 with SSAP activity (normalized)” value is on record as −0.403. The “Activity across all experiments” value in test [1] is recorded as −3.004. In the test with gene editing with dCas9, the “dCas9 with SSAP activity” value was −5.545 and the “dCas9 with SSAP activity (normalized)” value is given as −0.758.

B12: SSAP_156: SEQ ID NO: 325; Bacillus sp. AFS017336 (protein, listed as Bacillus sp.)
chain: ATNESLKNQITNKKTGEVPLTPAQQVSSYLKAYEGTFQQIAPKHFNTERFQRIALSEIRKNPKLLECSVPSLMSAVLQSVKLGLEPGLFGQAYLIPYGKEVQFQIGYRGLIELSQRSGRILKIQAREVYENDEFEVSYGIDDNIIHKPALDVDRGKVRLYYAVAWFKDGGAQFELMSISDVEKHRDKFSKTAKFGPWKDHFDEMAKKTVLKKLVKQLPMDVEFQEAVQEDETVRKTITDEPEILQAEFEIVDQPEISVE
Turning to B12, in the test with gene editing with Cas9, the “Cas9 with SSAP activity” value was 0.844 and the “Cas9 with SSAP activity (normalized)” value stood at 2.230. Further, the “Activity across all experiments” value in test [1] is given as −2.272. Besides, in the test with gene editing with dCas9, the “dCas9 with SSAP activity” value is listed as −5.389 and the “dCas9 with SSAP activity (normalized)” value was −0.877.
